Experimental data reported in US7314726B2, “Beta secretase exosite binding peptides and methods for identifying beta secretase modulators” (Bristol-Myers Squibb Company, priority 2002, dated 2008).
Values joined by “and” are separate entries in the source; they are usually repeats but may differ in a detail not shown here. Identical values can stand only once. Like-named read-outs stand apart in the source and are kept apart here. Each block holds one compound with its values, some of them ahead of it. Square brackets hold non-standard residues; d marks the D form. Peptide text beside a SMILES is read from it. Bpa = N[C@@H](Cc1ccc(C(=O)c2ccccc2)cc1)C(=O)O; Alexa488 = Alexa Fluor 488 fluorescent label

Experiments:
[1] = Solubility of Bpa-mutated peptides in the competition assay; format: physicochemical; conditions: FIG. 11, Bpa scan; inhibition under determined
[2] = target: T1, BACE (Homo sapiens, UniProt P56817); experiment: Phage ELISA of phage-displayed peptides on immobilised BACE; format: binding; parameters: The cDNA for the catalytic domain of human BACE (residues 1-460) was PCR-amplified; human IgG1 heavy chain (C, cleaved yes); thrombin cleavage site (C); made in house; host or cells: CHO DG44 cells (stably transfected, secreted); conditions: peptides from solution phase panning; tested at pH 5.0
Target sequence in this assay (P56817 46-460 limits assumed): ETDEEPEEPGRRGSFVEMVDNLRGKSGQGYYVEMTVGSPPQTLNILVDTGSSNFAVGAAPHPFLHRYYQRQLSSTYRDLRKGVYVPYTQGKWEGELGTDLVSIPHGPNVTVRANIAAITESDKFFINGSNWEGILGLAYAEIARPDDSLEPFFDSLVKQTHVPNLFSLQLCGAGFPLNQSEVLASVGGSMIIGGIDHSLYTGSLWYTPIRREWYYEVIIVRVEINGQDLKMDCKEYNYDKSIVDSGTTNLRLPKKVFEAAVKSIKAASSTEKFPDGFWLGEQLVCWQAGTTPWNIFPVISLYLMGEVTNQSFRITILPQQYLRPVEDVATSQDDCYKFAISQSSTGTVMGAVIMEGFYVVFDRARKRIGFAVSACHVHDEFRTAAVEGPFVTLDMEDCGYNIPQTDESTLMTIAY

[3] = target: T2, catalytic domain of BACE purified from E. coli cells (Homo sapiens, UniProt P56817); experiment: Binding of labeled EBP to BACE purified from E. coli cells; conditions: compared with BACE purified from CHO cells
T2 construct: the catalytic domain of BACE purified from E. coli cells; made in house; host or cells: E. coli
Experimental: Binding of Molecule Y1 to the catalytic domain of BACE purified from E. coli cells was carried out to determine the effect of glycosylation on the EBP binding.

[4] = target: T3, catalytic domain of human BACE expressed in a CHO cell line (Homo sapiens, UniProt P56817); experiment: Fluorescently labeled EBP binding to BACE, fluorescence anisotropy; conditions: for Kd: pH 4.5 (50 mM acetate), 25° C., 1:1 binding model, read-out: binding constant (Kd) of labeled EBP
T3 construct: The cDNA for the catalytic domain of human BACE (residues 1-460) was PCR-amplified; human IgG1 heavy chain (C, cleaved yes); thrombin cleavage site (C); made in house; host or cells: CHO DG44 cells (stably transfected, secreted)
Experimental: An assay to evaluate the binding of BACE to EBPs labeled with a fluorescent molecule (for example, but not limited to Alexa488) was developed. This assay uses the catalytic domain of human BACE expressed in a CHO cell line (according to Example 3) and labeled EBPs such as Molecule X shown in FIG. 4. The change in fluorescent anisotropy of the EBP peptide upon binding to BACE is monitored.
Peptides were dissolved in 100% DMSO (dimethyl sulfoxide) at 10 mM concentration, and then diluted 10-fold into deionized water. The concentration of the labeled peptides was determined by their absorbance at 495 nm (ε=71000 cm^−1M^−1). The concentration of selected unlabeled peptides was determined by their Tyr absorbance at 276 nm (ε=1390 cm^−1M^−1 per Tyr residue).
The binding was carried out at pH 7.1 (PBS buffer) and pH 4.5 (50 mM acetate buffer) in the presence of 1% DMSO. Fluorescence anisotropy was measured at 25° C. in an AVIV fluorometer. The excitation and emission wavelengths were set to 495 and 519 nm, respectively. The excitation and emission slit width were 4 and 10 nm, respectively. A concentrated BACE stock was used to titrate a 300 μl solution of 10 nM labeled EBP. The final BACE concentration ranges from 10 to 5000 nM. After the addition of BACE, the solution was mixed for 10 times with a pipettor. The fluorescence anisotropy was averaged over a 5 minute period.
The change in anisotropy was plotted against the BACE concentration (see, for example, FIG. 5). The Kd of the labeled EBP as well as the initial (r0) and final anisotropy (rb) of the labeled EBP were calculated from curve fitting using the program Kaleidagraph. The equation used to fit the binding data is identical to equation 1 in Lai et al., (2000) Arch. Biochem. Biophys. 381:278-284.

[5] = target: T1, BACE; experiment: BACE cleavage assay with MCA-[…](-dnp)-COOH substrate, HPLC analysis; format: biochemical; conditions: 0.1 nM BACE, 25 μM substrate peptide, 60 minutes at 25° C.; read-out: IC50, inhibition of proteolytic activity of BACE
Experimental: Molecule Y3 was tested in a BACE cleavage assay using the peptide MCA-[…](-dnp)-COOH (SEQ ID NO:107) as a substrate. The assay was carried out essentially as described in Mallender et al., (2001) Mol. Pharmacol. 59:619-626 and in Marcinkeviciene et al., (2001) J. Biol. Chem. 276: 23790-23794. A concentration of 0.1 nM BACE was incubated with Molecule Y3 at various concentrations for 15 minutes before substrate peptide was added to a final concentration of 25 μM. The reaction was allowed to proceed for 60 minutes at 25° C. before it was stopped by boiling. The reaction mixture was separated on a C18 column using reverse phase HPLC (Waters, Milford, Mass.). The IC50 value was calculated using the Langmuir isotherm equation (Copeland, R. A., Enzymes: A Practical Introduction to Structure, Mechanism, and Data Analysis, (2nd ed), Wiley-VCH, New York, N.Y. (2000)).
Target sequence in this assay (P56817 46-457 limits assumed): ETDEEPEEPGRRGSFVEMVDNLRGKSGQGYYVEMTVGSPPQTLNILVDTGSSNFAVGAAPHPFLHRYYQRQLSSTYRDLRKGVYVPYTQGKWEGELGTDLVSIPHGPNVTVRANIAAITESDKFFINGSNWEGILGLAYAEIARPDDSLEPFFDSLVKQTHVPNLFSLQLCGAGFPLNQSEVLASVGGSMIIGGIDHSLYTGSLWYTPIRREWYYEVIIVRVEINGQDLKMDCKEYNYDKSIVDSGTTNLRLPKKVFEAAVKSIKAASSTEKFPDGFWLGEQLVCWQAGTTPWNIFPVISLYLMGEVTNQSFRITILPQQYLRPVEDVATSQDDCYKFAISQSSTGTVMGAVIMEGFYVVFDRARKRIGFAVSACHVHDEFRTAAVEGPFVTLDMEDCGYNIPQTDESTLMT

T3 sequence (P56817 46-460 limits assumed): as the sequence (P56817 46-460 limits assumed) above
T2 sequence (P56817 46-457 limits assumed): as the sequence (P56817 46-457 limits assumed) above

Compound: CC[C@H](C)[C@H](NC(=O)[C@H](Cc1ccccc1)NC(=O)[C@H](Cc1ccc(O)cc1)NC(=O)[C@H](Cc1ccc(C(=O)c2ccccc2)cc1)NC(=O)[C@H](Cc1ccc(O)cc1)NC(C)=O)C(=O)N1CCC[C@H]1C(=O)N[C@@H](CC(C)C)C(N)=O [P6B] (Ac-Y[Bpa]YFIPL-NH2)
- solubility [1]: limited solubility

Compound: Molecule Y3: analog of Molecule Y1 with different length of linker between Alexa488 and the peptide (Ac-YPYFIPL-Alexa488; also: linker between peptide and Alexa488 not given here)
- IC50 [5]: 731 nM
- Kd [4]: 48 nM

Compound: TAEYESRTARTAPPAPTQHWPFFIRST
- phage ELISA binding to BACE [2]: strong and specific binding

Further lines, with some results ahead:

- solubility [1]: limited solubility
Compound: CC(=O)N[C@@H](Cc1ccc(O)cc1)C(=O)N1CCC[C@H]1C(=O)N[C@@H](Cc1ccc(O)cc1)C(=O)N[C@@H](Cc1ccccc1)C(=O)N[C@@H](Cc1ccc(C(=O)c2ccccc2)cc1)C(=O)N1CCC[C@H]1C(=O)N[C@@H](CC(C)C)C(N)=O [I9B] (Ac-YPYF[Bpa]PL-NH2)

- phage ELISA binding to BACE [2]: strong and specific binding
Compound: ETWPRFIPYHALTQQTLKHQQHT

- enhancement of affinity in the presence of OM99-2 ([4]; in the presence of 10 μM OM99-2): 5 fold
- Kd ([4]; listed as Y1): 58 nM and 57 nM
Compound: Molecule Y1: peptide YPYFIPL (BMS-593925) with C-terminal Alexa488 label, FIG. 4 (Ac-YPYFIPL-Alexa488; also: linker between peptide and Alexa488 not given here)
- binding affinity for E. coli expressed (non-glycosylated) human BACE [3]: the same as that of human BACE purified from CHO cells
